Data set [1] concerns the target T1, full-length ClpB M394C (Thermus thermophilus, UniProt Q9RA63 1-854, M394C).
T1 construct: ClpB from Thermus thermophilus, full-length protein; source: E. coli BL21 (DE3) RIL, purified
Briefly: cross-linking; intermolecular disulfide between two single-cysteine variants, 50 μM each, 50 μM copper phenanthroline, 2 mM ADP, 50 mM Tris/HCl pH 7.5, 50 mM KCl, 5 mM MgCl2, 1 h at 37 °C; dimer separated on Superdex 200 26/60, non-reducing SDS-PAGE. Particulars: both partners purified.

Data set [2] addresses T2, ClpB NBD1-M M394C (Thermus thermophilus, UniProt Q9RA63 141-534, M394C).
T2 construct: ClpB from Thermus thermophilus, NBD1 and M-domain, amino acids 141-534; source: E. coli BL21 (DE3) RIL, purified
Described as above. Particulars: both partners purified.

Data set [3] concerns the molecule itself. Briefly: SEC-MALS; Superdex 200 10/300 GL with multiangle static light scattering (SLS), buffer A (50 mM Tris/HCl pH 7.5, 50 mM KCl, 5 mM MgCl2, 2 mM EDTA); running buffer nucleotide-free or with 2 mM ADP or 2 mM ATP; 40 μl of 100 μM injected, about 2 μM at the detector; self-association induced by nucleotide.
Data set [4] concerns the target T3, ClpB NBD1-M A390C (Thermus thermophilus, UniProt Q9RA63 141-534, A390C).
T3 construct: ClpB from Thermus thermophilus, NBD1 and M-domain, amino acids 141-534; source: E. coli BL21 (DE3) RIL, purified
Briefly: cross-linking; intermolecular disulfide between two single-cysteine variants, 50 μM each, 50 μM copper phenanthroline, 2 mM ADP, 50 mM Tris/HCl pH 7.5, 50 mM KCl, 5 mM MgCl2, 1 h at 37 °C; dimer separated on Superdex 200 26/60, non-reducing SDS-PAGE. Particulars: both partners purified.

Data set [5] deals with the molecule itself. Briefly: dynamic light scattering; 1–30 μM protein (monomeric units) in buffer A with 2 mM ATP and an ATP-regenerating system (phosphoenolpyruvate, pyruvate kinase); self-association.

B1: full-length ClpB P221C (natural protein, Thermus thermophilus, UniProt Q9RA63 1-854, looked up)
chain: MNLERWTQAAREALAQAQVLAQRMKHQAIDLPHLWAVLLKDERSLAWRLLEKAGADPKALKELQERELARLPKVEGAEVGQYLTSRLSGALNRAEALMEELKDRYVAVDTLVLALAEATPGLPGLEALKGALKELRGGRTVQTEHAESTYNALEQYGIDLTRLAAEGKLDPVIGRDEEIRRVIQILLRRTKNNPVLIGEPGVGKTAIVEGLAQRIVKGDVCEGLKGKRIVSLQMGSLLAGAKYRGEFEERLKAVIQEVVQSQGEVILFIDELHTVVGAGKAEGAVDAGNMLKPALARGELRLIGATTLDEYREIEKDPALERRFQPVYVDEPTVEETISILRGLKEKYEVHHGVRISDSAIIAAATLSHRYITERRLPDKAIDLIDEAAARLRMALESAPEEIDALERKKLQLEIEREALKKEKDPDSQERLKAIEAEIAKLTEEIAKLRAEWEREREILRKLREAQHRLDEVRREIELAERQYDLNRAAELRYGELPKLEAEVEALSEKLRGARFVRLEVTEEDIAEIVSRWTGIPVSKLLEGEREKLLRLEEELHKRVVGQDEAIRAVADAIRRARAGLKDPNRPIGSFLFLGPTGVGKTELAKTLAATLFDTEEAMIRIDMTEYMEKHAVSRLIGAPPGYVGYEEGGQLTEAVRRRPYSVILFDEIEKAHPDVFNILLQILDDGRLTDSHGRTVDFRNTVIILTSNLGSPLILEGLQKGWPYERIRDEVFKVLQQHFRPEFLNRLDEIVVFRPLTKEQIRQIVEIQLSYLRARLAEKRISLELTEAAKDFLAERGYDPVFGARPLRRVIQRELETPLAQKILAGEVKEGDRVQVDVGPAGLVFAVPARVEA
notes: ClpB from Thermus thermophilus, full-length protein; source: E. coli BL21 (DE3) RIL, purified
With B1, the binding result in data set [1] was “binds”.

B2: ClpB NBD1-M P221C (domain or fragment, Thermus thermophilus, UniProt Q9RA63 141-534, looked up)
chain: VQTEHAESTYNALEQYGIDLTRLAAEGKLDPVIGRDEEIRRVIQILLRRTKNNPVLIGEPGVGKTAIVEGLAQRIVKGDVCEGLKGKRIVSLQMGSLLAGAKYRGEFEERLKAVIQEVVQSQGEVILFIDELHTVVGAGKAEGAVDAGNMLKPALARGELRLIGATTLDEYREIEKDPALERRFQPVYVDEPTVEETISILRGLKEKYEVHHGVRISDSAIIAAATLSHRYITERRLPDKAIDLIDEAAARLRMALESAPEEIDALERKKLQLEIEREALKKEKDPDSQERLKAIEAEIAKLTEEIAKLRAEWEREREILRKLREAQHRLDEVRREIELAERQYDLNRAAELRYGELPKLEAEVEALSEKLRGARFVRLEVTEEDIAEIVSRWT
notes: ClpB from Thermus thermophilus, NBD1 and M-domain, amino acids 141-534; source: E. coli BL21 (DE3) RIL, purified
With B2, the binding result in data set [2] is “binds”.

B3: cross-linked NBD1-M dimer wild-type (P221C/M394C disulfide) (complex)
chain 1: B2 chain
chain 2: not shown
modifications: intermolecular disulfide bond between P221C of this chain and M394C of the other chain | intermolecular disulfide bond between M394C of this chain and P221C of the other chain
notes: ClpB from Thermus thermophilus, NBD1 and M-domain, amino acids 141-534; also called cross-linked wild-type dimer; P221C/M394C dimer; source: E. coli BL21 (DE3) RIL, purified; the two cysteine variants oxidised with copper phenanthroline, dimer separated on Superdex 200
On to B3, for which, in data set [3], the “stoichiometry N” value is ~4 NBD1-M subunits (two cross-linked dimers).

B4: ClpB NBD1-M Q184C (domain or fragment)
chain: not shown
notes: as for B2
For B4, in data set [4], the binding result is “binds”.

B5: ClpB NBD1-M R323A (domain or fragment)
chain: not shown
notes: ClpB from Thermus thermophilus, NBD1 and M-domain, amino acids 141-534; also called single mutant R323A; source: E. coli BL21 (DE3) RIL, purified
With B5, the “stoichiometry N” value in data set [5] was found to be 2.

B6: ClpB NBD1-M wild type (domain or fragment)
chain: not shown
notes: ClpB from Thermus thermophilus, NBD1 and M-domain, amino acids 141-534; also called unlinked NBD1-M wild type; ClpB construct comprising residues 141-534; source: E. coli BL21 (DE3) RIL, purified
Consider B6, for which the “stoichiometry N” value in data set [5] came to 3.

B7: ClpB NBD1-M R322A/R323A (domain or fragment)
chain: not shown
notes: ClpB from Thermus thermophilus, NBD1 and M-domain, amino acids 141-534; also called double mutant; source: E. coli BL21 (DE3) RIL, purified
On to B7, for which the “stoichiometry N” value in data set [5] is 2.

B8: ClpB NBD1-M R322A (domain or fragment)
chain: not shown
notes: ClpB from Thermus thermophilus, NBD1 and M-domain, amino acids 141-534; also called single mutant R322A; source: E. coli BL21 (DE3) RIL, purified
As to B8, in data set [5], the “stoichiometry N” value is 2.

Values taken from article PMC4239642, “trans-Acting Arginine Residues in the AAA+ Chaperone ClpB Allosterically Regulate the Activity through Inter- and Intradomain Communication*” (The Journal of Biological Chemistry, 2014).
